Data published in PMC5906480, “Tau Antibody Structure Reveals a Molecular Switch Defining a Pathological Conformation of the Tau Protein” (Scientific Reports, 2018).
“Also recorded” adds a separate entry of the source.

Columns and labels:
[1] = test system: pS404 peptide; test: ELISA, pS404 peptide; assay type: binding; conditions: plate coated with peptide 2 μg/mL; C5.2 IgG 8 μg/mL–0.05 ng/mL, 1 h room temperature; 405 nm
Procedure: (§1) Immulon 4 HBX (extra high-binding) 96-well microtiter plates (Thermo Scientific) were coated with the same peptide used for crystallization diluted to 2 μg/mL in phosphate-buffered saline (PBS) and left overnight at 4 °C (Table 1). Plates were then washed three times in PBS-T (PBS containing 0.05% Tween-20) and blocked in 5% non-fat milk and 3% bovine serum albumin in PBS for 2 hours at room temperature. Plates were subsequently washed 3 times in PBS-T before C5.2 was serially diluted (8 μg/mL–0.05 ng/mL) in PBS and incubated for 1 hour at room temperature. Then, alkaline phosphatase-conjugated goat anti-mouse IgG (Southern Biotech) was diluted 1:2000 in PBS and incubated for 30 minutes at room temperature. Finally, bound IgG was analyzed by addition of p-nitrophenyl phosphate substrate (Thermo Scientific) and measurement at 405 nm on a VersaMax Microplate Reader.
(§2) In order to evaluate the ability of C5.2 to exclusively target the phosphorylated epitope, we performed an enzyme-linked immunosorbent assay (ELISA). The peptides used in the assay are the same peptides used for crystallization and diluted to a concentration of 2 μg/mL (Table 1). Binding curves were generated from ELISA data by maintaining plate-bound peptide concentrations and serially diluting C5.2 IgG (Fig. 1c).

[2] = test system: non-phosphorylated peptide; test: ELISA, non-phosphorylated peptide; assay type: binding; conditions: plate coated with peptide 2 μg/mL; C5.2 IgG 8 μg/mL–0.05 ng/mL, 1 h room temperature; 405 nm
Procedure: as §1, §2

[3] = test system: tau pathology in Alzheimer's disease brain sections (prefrontal cortex); test: Immunohistochemistry, Alzheimer's disease brain sections; assay type: binding, human; conditions: C5.2 at 0.1 to 1 μg/mL, overnight 4 °C, paraffin sections
Procedure: Paraffin sections of 4 μm thickness were prepared from blocks of PFA-fixed prefrontal cortex from AD donors and non-demented controls obtained from Tissue Solutions (Glasgow, UK). The sections were deparaffinised, rehydrated and subjected to antigen retrieval by boiling in 10 mM citrate buffer pH 6 for 5 min. Endogenous peroxidase was quenched for 10 min with 1% H2O2 in PBS. Sections were then incubated 20 min in blocking buffer followed by overnight incubation in a humidified chamber at 4 °C with primary antibody at 0.1 to 1 μg/mL in incubation buffer. Between each incubation step, the sections were washed 3 × 10 min in wash buffer. Subsequently, the sections were incubated at room temperature in the following solutions; 60 min with a biotinylated secondary Ab diluted 1:200 in wash buffer; 60 min in ABC; 20 min in DAB. Finally, the sections were counterstained with hematoxylin and coverslipped.

[4] = test system: FITC-conjugated tau peptide pS396; test: Fluorescence polarization direct binding, pS396 peptide
Procedure: FITC-labeled peptides used in fluorescence polarization experiments were synthesized by Biomatik (Cambridge, ON, Canada). Fab C5.2 affinity was determined using a fluorescence polarization-based direct binding assay with fluorescein isothiocyanate (FITC)-conjugated peptides (Table 1). The FITC-peptide concentration was kept constant at 300 nM while Fab C5.2 was serially diluted from 675 nM to 0.08 nM. Data was collected at 25 °C using excitation and emission wavelengths of 485 nm and 535 nm, respectively. Each experiment was done in a single 96-well plate and calculated in triplicate (buffer: 50 mM Tris, 100 mM NaCl, 0.1% pluronic F-127). The experiments were performed with a DTX 880 Multimode Detector (Beckman Coulter, Jersey City, NJ). Fluorescence data was reduced using multimode detection software and KD values were calculated in GraphPad Prism 7.0 using a nonlinear regression model.
To accurately measure the C5.2 binding affinity, we performed fluorescence polarization experiments to determine dissociation constants (KD), using the Fab C5.2 and four differentially phosphorylated FITC-conjugated peptides (Table 1). The peptide concentration was kept constant while that of Fab C5.2 was serially diluted from 675 nM to 0.08 nM (Fig. 1d). […] In comparison with a […] IgG molecule, each Fab fragment contains a single binding site so the KD was calculated using a nonlinear model.

[5] = test system: pS396 peptide; test: ELISA, pS396 peptide; assay type: binding
Procedure: as §1, §2

B1: C5.2: novel mouse monoclonal antibody that targets the pS396 tau epitope region (antibody, V domains shown)
VH: QVQLQQSDAELVKPGASVKISCKASGYTFTDRTIHWVKQRPEQGLEWIGYIYPGDDSTKYNDMFKAKATLTADKSSNTAYMQLNSLTSDDSAVYFCARRGTMDYWGQGTSVTVSS
VL: DVQMIQSPSSLSASLGDIVTMTCQASQDTSINLNWFQQKPGKAPKLLIYGASNLEDGVPSRFSGSRYGTDFTLTISSLEDEDMATYFCLQHTYLPFTFGSGTKLEIK
[1]
  Recognition of peptide (ELISA): lack of recognition; also recorded: does not bind
[2]
  Recognition of peptide (ELISA): lack of recognition; also recorded: does not bind
[3]
  Binding in AD brain sections: binds strongly to tangles, pre-tangles and dystrophic neurites
[4]; Discussion, ELISA and fluorescence polarization
  Phosphorylation state-specificity: phosphorylation state-specific with nanomolar affinity
[4]; both experiments (ELISA and fluorescence polarization)
  Phospho-specificity: phospho-specificity for pS396
[4]; restated in Discussion, fluorescence polarization, Fab C5.2
  Kd: 14.9 nM
[5]; ELISA, vs pS404 and non-phosphorylated peptides
  Phospho-specificity: pS396 phosphorylation state-specific mAb
[5]; plate coated with peptide 2 μg/mL, C5.2 IgG 8 μg/mL–0.05 ng/mL, 1 h room temperature, 405 nm
  Association with peptide (ELISA): strong association
